This note sets out measurements from patent US8217161B2, “Methods of inhibiting multiple cytochrome P450 genes with siRNA” (Clemson University Research Foundation, priority 2008, dated 2012).

In data set [1] the test system is Cyp2b-knockdown mice. Conditions: mouse, in vivo.
For data set [2], the system named is Cyp2b-knockdown mice. Kind of data set: Chlorpyrifos toxicity in Cyp2b-knockdown mice. The class given is in vivo, mouse. Conditions: 10 mg/kg ip. The protocol: Chlorpyrifos: Similar to parathion, chlorpyrifos is an organophosphate insecticide that activates CAR, but chlorpyrifos is more toxic to wild-type mice. Initial toxicity is outwardly shown by mucous discharge from the eyes and later by reduced activity or complete lethargy, similar to other acetylcholinesterase inhibitors. Mice are injected ip with 10 mg/kg of chlorpyrifos and watched for behavioral changes. Mice showing toxicity are immediately euthanized to avoid unnecessary distress or pain. Statistical differences are determined using a Fisher's 2×2 test (StatView®, SAS Institute, Cary, N.C.).

Data set [3] has as its system Cyp2b-knockdown mice. The conditions noted are these: 75 mg/kg ip, observed 30 minutes. The protocol:
Strychnine: Strychnine is a Cyp2b-inducer (Oguri et al., Arch. Biochem. Biophys. 287:105 (1991); Yamada et al., Arch. Biochem. Biophys. 299:248 (1992)) and therefore a potential CAR agonist. Strychnine is administered ip (75 mg/kg in saline) and observed for 30 minutes. Latency time to the first convulsions and number of animals showing convulsion is noted. […] Statistical analysis is performed using Fisher's 2×2 tests.

Data set [4] has as its system primary mouse hepatocytes. Kind of data set: Percentage of cells infected, by green fluorescence microscopy. The class given is cell-based. Conditions: MOI of 5. The procedure:
(§1) The efficacy of the Cyp2b-KD2 and Cyp2b-KD3 lentiviral constructs to repress the expression of the Cyp2b subfamily members, Cyp2b9 and Cyp2b10 was tested using primary mouse hepatocytes. Primary mouse hepatocytes were plated in 6-well plates, treated with the CAR activator TCPOBOP to induce Cyp2b subfamily members (especially Cyp2b10) and then infected with either scrambled, Cyp2b-KD2 or Cyp2b-KD3 at a multiplicity of infection (MOI) of 20 and/or 5. The percentage of cells infected based on the presence of green fluorescence using fluorescent microscopy was approximately 65-80+% in KD2 transduced cells at a MOI of 5 and a about 55-70% in KD3 transduced cells at a MOI of 5.

A further data set relates to Cyp2b9 mRNA. Kind of data set: Q-PCR of Cyp2b9 mRNA in TCPOBOP-induced primary mouse hepatocytes transduced with lentiviral shRNA constructs. In kind it is cell-based. The protocol:
(§2) Q-PCR is performed to determine the efficacy of shRNA knockdown of the Cyp2b gene subfamily. Total RNA is isolated using a modified guanidinium thiocyanate-phenol-chloroform extraction protocol with TRI-reagent (Sigma, St. Louis, Mo.) according to the manufacturer's specifications followed by DNAse (Promega Corporation, Madison Wis.) treatment to remove residual genomic DNA. RNA is quantified spectrophotometrically and stored at −80° C. Reverse transcription is performed to create cDNA using MMLV-RT, a dNTP mixture, and random decamers. cDNA is stored at −20° C. Q-PCR is performed as described previously (Roling et al., Mar. Environ. Res. 57:377 (2004)). Briefly, to generate a standard curve and determine PCR efficiency, cDNA is combined and a 2×, 1:1, 1:10, 1:100, and 1:1000 dilution made. […] Amplifications are performed in triplicate using a 96-well MyiQ™ Real-Time PCR Detection System (Bio-Rad) with 0.25× SybrGreen as the fluorescent double strand-intercalating agent to quantify gene expression. The advantage of Q-PCR is having enough material to investigate a decrease of several Cyp2b isoforms as well as confirm that other P450 subfamilies are unaffected (Cyp3a, 2c).
(§3) Q-PCR results are normalized to the expression of the two housekeeping genes, β-Actin and 18S rRNA. A minimum of forty cycles is run on all real time samples to ensure a log based growth curve. Quantification is done by taking the efficiency curve of the Q-PCR reaction to the power of the threshold cycle (Ct). Samples are normalized to reference genes (β-actin and 18S rRNA) quantified for each sample. The formula for calculating normalized gene expression is NE={Eref}^Ct-ref/{Etarget}^Ct-target where NE is normalized gene expression, E is the efficiency of amplification for a particular gene, Ct is the threshold cycle, ref is the housekeeping gene (β-actin and 18S rRNA), and target is the gene of interest (Muller et al., Biotechniques 32:1372 (2002)).
as §1

Another data set relates to Cyp2b10 mRNA. Description: Q-PCR of Cyp2b10 mRNA in TCPOBOP-induced primary mouse hepatocytes transduced with lentiviral shRNA constructs. The class given is cell-based. The conditions noted are these: for reduction of Cyp2b10 expression: MOI 20 and/or 5, vs scrambled lentivirus. The protocol: as §2, §3, §1
[5] abbreviates: TCPOBOP-treated primary mouse hepatocytes.

Read-outs that look alike come from different tables or passages of the source.

Consider `CC(=O)Nc1ccc(O)cc1` [acetaminophen], for which the “toxicity in TCPOBOP-treated mice” value in the data set on Cyp2b-knockdown mice [1] is recorded as “greatest amount of toxicity”.
Consider `CCOP(=S)(OCC)Oc1nc(Cl)c(Cl)cc1Cl` [chlorpyrifos], for which the “sensitivity as compared to wild-type mice” value with Cyp2b-knockdown mice [2] is recorded as “decreased sensitivity”.
As for `O=C1C[C@@H]2OCC=C3CN4CC[C@]56c7ccccc7N1[C@H]5[C@H]2[C@H]3C[C@H]46` [strychnine], the protection from convulsions result with Cyp2b-knockdown mice [3] was “protection”.

B1: Cyp2b-KD3: lentiviral shRNA construct targeting mouse Cyp2b subfamily; siRNA sequence CAGGAAAGCGCATTTGTCTTG (nucleic acid)
DNA: GGATCCCGCAAGACAAATGCGCTTTCCTGTTGATATCCGCAGGAAAGCGCATTTGTCTTGTTTTTTCCAACTCGAG
Turning to B1, the “percentage of cells infected based on green fluorescence” value in data set [4] is on record as 55-70%. The figures for the “Cyp2b9 expression relative to cells treated with the scrambled shRNA (in words)” value with Cyp2b9 mRNA and in the data set with Cyp2b9 mRNA (listed as KD3) were “not reduced” and “reduced”, respectively. In addition, the “Cyp2b10 expression relative to cells treated with the scrambled shRNA (in words)” value in the data set with Cyp2b10 mRNA is on record as “only KD2 reduced”. Besides, the “reduction of Cyp2b10 expression” value in the data set with Cyp2b10 mRNA (setting [5]) amounted to 50%.

B2: scrambled-shRNA: control shRNA construct with scrambled sequence that does not recognize any murine mRNAs (nucleic acid)
chain: GGATCCCGACGATTCGAGGCGCAGTGATTTGATATCCGATCACTGCTCCTCGAATCGTCTTTTTTCCAACTCGAG
Take B2: the “Cyp2b9 expression relative to uninfected cells (in words)” value in the data set with Cyp2b9 mRNA (setting [5]) was “did not reduce”. Further, the “Cyp2b10 expression relative to uninfected cells (in words)” value with Cyp2b10 mRNA (setting [5]) is on record as “did not reduce”.

B3: Cyp2b-KD2: lentiviral shRNA construct targeting mouse Cyp2b subfamily; siRNA sequence AAGAACACTGAGGTGTACCCC (nucleic acid)
DNA: GGATCCCAAGAACACTGAGGTGTACCCCTTGATATCCGGGGGTACACCTCAGTGTTCTTTTTTTTCCAACTCGAG
Take B3: the “percentage of cells infected based on green fluorescence” value in data set [4] is listed as 65-80%. In addition, in the data set on Cyp2b9 mRNA, the “Cyp2b9 expression relative to cells treated with the scrambled shRNA (in words)” value is given as “reduced”. In addition, the “reduction of Cyp2b9 expression” value in the data set with Cyp2b9 mRNA (TCPOBOP-treated primary mouse hepatocytes, MOI 20 and/or 5, vs scrambled lentivirus) is on record as 75-98%. Moreover, the “Cyp2b10 expression relative to cells treated with the scrambled shRNA (in words)” value in the data set with Cyp2b10 mRNA is “reduced”. In addition, the “reduction of Cyp2b10 expression” value in the data set with Cyp2b10 mRNA (setting [5]) is on record as 75-98%.
